Positions count from the first letter of the chain named. Numbers in names are those of the source. Where “and” joins values, the source holds several entries; their conditions need not be identical. Equal entries are not always repeated.
What was measured:
[1] = target: the molecule itself; experiment: SEC; 1 mg/ml protein on a 24 ml Superose 6HR 10/30 column in 20 mM Tris-HCl pH8, 1 mM EDTA, 0.5 mM DTT, 250 mM KCl
[2] = target: T1, E. coli SSB (single-stranded DNA binding protein), wild type (E. coli, UniProt P0AGE0 1-178); experiment: far-Western; purified SSB wt or mutant (0.5-5 µg) separated on 15% SDS-PAGE, blotted to PVDF, probed with 20-30 µg YbcN or Orf fused to MBP or GST; detected with anti-MBP or anti-GST antibodies; conditions: both partners purified
T1 construct: also called wt SSB; source: purified as described [13]
T1 sequence (P0AGE0 whole entry, the tested form may be a part): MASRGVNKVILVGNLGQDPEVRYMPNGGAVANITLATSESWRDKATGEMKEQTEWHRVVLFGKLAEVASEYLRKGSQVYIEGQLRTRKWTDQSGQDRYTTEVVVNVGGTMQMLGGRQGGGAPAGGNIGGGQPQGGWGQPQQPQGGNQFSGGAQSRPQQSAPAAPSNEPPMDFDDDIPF

[3] = target: the molecule itself; experiment: SDS-PAGE of unboiled samples; purified protein on 12.5% SDS-PAGE without boiling and without a reducing agent, Coomassie blue
[4] = target: T1, E. coli SSB (single-stranded DNA …); experiment: ELISA; SSB wt or mutant (0.5 µg) bound to the microtitre plate in PBS, GST fusion added for 1 hr at 37°C, detected with HRP-anti-GST antibody, A620nm; conditions: both partners purified
MBP-YbcN = target: T2, MBP-YbcN (Escherichia coli cryptic prophage DLP12 …, UniProt Q47269 1-151); experiment: fluorescence anisotropy; apparent, per dimer; EMSA: 50 mM Tris-HCl pH 8.0, 5 mM EDTA (or 1 mM MgCl2), 1 mM DTT, 5% glycerol, 100 ug/ml BSA, on ice 15 min, 4% PAGE; anisotropy: 100 mM Tris-HCl pH 7.0, 10 nM; conditions: protein: recombinant, tags: N-terminal MBP, chain copies: 2
T2 sequence: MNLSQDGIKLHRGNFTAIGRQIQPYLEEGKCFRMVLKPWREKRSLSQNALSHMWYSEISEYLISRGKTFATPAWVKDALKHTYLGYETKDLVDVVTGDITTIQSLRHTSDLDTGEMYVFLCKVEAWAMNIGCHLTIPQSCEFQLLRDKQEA

MBP-Orf Q45A = target: T3, MBP-Orf Q45A (Bacteriophage lambda, UniProt P03765 1-146, Q45A); experiment: as above; conditions: protein: recombinant, tags: N-terminal MBP, chain copies: 2
T3 sequence: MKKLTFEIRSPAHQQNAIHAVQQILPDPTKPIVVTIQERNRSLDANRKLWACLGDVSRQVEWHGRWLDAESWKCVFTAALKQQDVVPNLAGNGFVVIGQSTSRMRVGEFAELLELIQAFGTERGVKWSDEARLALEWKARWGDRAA

MBP-Orf V106E = target: T4, MBP-Orf V106E (Bacteriophage lambda, UniProt P03765 1-146, V106E); experiment: as above; conditions: protein: recombinant, tags: N-terminal MBP, chain copies: 2
T4 sequence: T3 sequence with A45Q, V106E

MBP-Orf K48A = target: T5, MBP-Orf K48A (Bacteriophage lambda, UniProt P03765 1-146, K48A); experiment: as above; conditions: protein: recombinant, tags: N-terminal MBP, chain copies: 2
T5 sequence: T3 sequence with A45Q, K48A

MBP-Orf W137A = target: T6, MBP-Orf W137A (Bacteriophage lambda, UniProt P03765 1-146, W137A); experiment: as above; conditions: protein: recombinant, tags: N-terminal MBP, chain copies: 2
T6 sequence: T3 sequence with A45Q, W137A

MBP-Orf W50A = target: T7, MBP-Orf W50A (Bacteriophage lambda, UniProt P03765 1-146, W50A); experiment: as above; conditions: protein: recombinant, tags: N-terminal MBP, chain copies: 2
T7 sequence: T3 sequence with A45Q, W50A

MBP-Orf [5] = target: T8, MBP-Orf (Bacteriophage lambda, UniProt P03765 1-146); experiment: as above; conditions: protein: recombinant, tags: N-terminal MBP, chain copies: 2
T8 sequence: T3 sequence with A45Q

MBP-Orf R103E = target: T9, MBP-Orf R103E (Bacteriophage lambda, UniProt P03765 1-146, R103E); experiment: fluorescence anisotropy; dash in table; most severely deficient; EMSA: 50 mM Tris-HCl pH 8.0, 5 mM EDTA (or 1 mM MgCl2), 1 mM DTT, 5% glycerol, 100 ug/ml BSA, on ice 15 min, 4% PAGE; anisotropy: 100 mM Tris-HCl pH 7.0, 10 nM; conditions: protein: recombinant, tags: N-terminal MBP, chain copies: 2
T9 sequence: T3 sequence with A45Q, R103E

MBP-Orf [6] = target: T8, MBP-Orf; experiment: EMSA; 5 mM EDTA; better than DS60; EMSA: 50 mM Tris-HCl pH 8.0, 5 mM EDTA (or 1 mM MgCl2), 1 mM DTT, 5% glycerol, 100 ug/ml BSA, on ice 15 min, 4% PAGE; anisotropy: 100 mM Tris-HCl pH 7.0, 10 nM; conditions: protein: recombinant, tags: N-terminal MBP, chain copies: 2, label: 5'-32P on strand 1, blunt
[7] = target: the molecule itself; experiment: static light scattering; 0.2 mg/ml protein in 100 mM Tris-HCl pH 7 at 25°C, Zetasizer µV; mass estimated for a spherical particle
[8] = target: the molecule itself; experiment: SEC; 1 mg/ml protein on a 24 ml Superose 12 HR 10/30 column in 20 mM Tris-HCl pH 8.0, 1 mM EDTA, 0.5 mM DTT, 150 mM KCl
[9] = label: 3'-fluorescein, single strand
[10] = label: 3'-fluorescein on strand 1, blunt, central 20 nt bubble

B1: MBP-YbcN (E. coli maltose binding protein fused to the N-terminus of DLP12 YbcN) (natural protein, E. coli (cryptic prophage DLP12), UniProt Q47269 1-151, looked up)
chain: T2 sequence
notes: YbcN (orf151), Orf-family protein of E. coli cryptic prophage DLP12; the gene was amplified from AB1157 genomic DNA, forward primer at the ATG; predicted monomer of the MBP fusion 60.4 kDa; Construct in pMALc2; also called DLP12 MBP-YbcN; orf151; source: E. coli DH5α or BL21 (DE3) Rosetta carrying pLB101, purified (amylose; additional stocks amylose and heparin agarose)
stoichiometry N [1]: 2
binding result [2]: binds

B2: GST-YbcN (N-terminal glutathione S-transferase fusion of DLP12 YbcN) (natural protein, E. coli (cryptic prophage DLP12), UniProt Q47269 1-151, looked up)
chain: T2 sequence
notes: YbcN (orf151), Orf-family protein of E. coli cryptic prophage DLP12; insert of pLB101 moved into pGEX-6P-1; predicted monomer of the GST fusion 44.6 kDa; higher oligomers are put down to dimer-dimer combinations; also called DLP12 GST-YbcN; source: E. coli BL21 Codon Plus carrying pLB108, purified (glutathione sepharose, heparin agarose, Q sepharose); not shown: GST, N-terminal, kept
stoichiometry N [3]: 4
binding result [4]: binds

B3: SS60-fluorescein (ssDNA)
DNA: TTTGGTCTAACTTTACCGCTACTAAATGCCGCGGATTGGTTTCGCTGAATCAGGTTATTA
Kd (MBP-YbcN; [9]): 4600 ± 275 nM
Kd (MBP-Orf Q45A; [9]): 272 ± 20.4 nM
Kd (MBP-Orf V106E; [9]): 522 ± 12.4 nM
Kd (MBP-Orf K48A; [9]): 622 ± 0.7 nM
Kd (MBP-Orf W137A; [9]): 628 ± 99.9 nM
Kd (MBP-Orf W50A; [9]): 3540 ± 288 nM
Kd (MBP-Orf [5]; [9]): 223 ± 72.6 nM
binding result (MBP-Orf R103E; [9]): no binding

B4: BB5 (structured_DNA)
DNA 1: B3 DNA
DNA 2: TAATAACCTGATTCAGCGAAACCAATCGCAACCATTTAGTAGCGGTAAAGTTAGACCAAA
binding result (MBP-Orf [6]; central 5 nt bubble): binds

B5: BB13 (structured_DNA)
DNA 1: B3 DNA
DNA 2: TAATAACCTGATTCAGCGAAACATTGTAGGTAAGCTTAGTAGCGGTAAAGTTAGACCAAA
binding result (MBP-Orf [6]; central 13 nt bubble): binds

B6: BB20-fluorescein (structured_DNA)
DNA 1: B3 DNA
DNA 2: TAATAACCTGATTCAGCGAATGACCGATAACGTCCACTTGAGCGGTAAAGTTAGACCAAA
Kd (MBP-YbcN; [10]): 1619 ± 3.2 nM
Kd (MBP-Orf Q45A; [10]): 264 ± 15.2 nM
Kd (MBP-Orf V106E; [10]): 540 ± 73.2 nM
Kd (MBP-Orf K48A; [10]): 551 ± 6.4 nM
Kd (MBP-Orf W137A; [10]): 285 ± 1.9 nM
Kd (MBP-Orf W50A; [10]): 1610 ± 418 nM
Kd (MBP-Orf [5]; [10]): 173 ± 20.9 nM
binding result (MBP-Orf R103E; [10]): no binding

B7: MBP-Orf (bacteriophage λ Orf fused to maltose binding protein), wild type (natural protein)
chain: T3 sequence with A45Q
notes: Orf (NinB) of bacteriophage λ, a 17 kDa protein; predicted MBP-Orf monomer 59.6 kDa; also called Orf wt; λ MBP-Orf; source: purified as described [13]
binding result [7]: binds
binding result [2]: binds

B8: MBP-Orf W137A (natural protein, bacteriophage λ)
chain: T3 sequence with A45Q, W137A
notes: Orf (NinB) of bacteriophage λ with W137A; Mutant derivative in pMALc2; source: E. coli BL21-AI carrying the pMALc2 construct, purified (amylose) as described [13]
stoichiometry N [8]: 2
binding result [2]: binds

B9: MBP-Orf Q45A (natural protein, bacteriophage λ)
chain: T3 sequence
notes: Orf (NinB) of bacteriophage λ with Q45A; Mutant derivative in pMALc2; source: E. coli BL21-AI carrying the pMALc2 construct, purified (amylose, heparin-agarose)
stoichiometry N [8]: 2
binding result [2]: binds

B10: MBP-Orf R103E (natural protein, bacteriophage λ)
chain: T3 sequence with A45Q, R103E
notes: Orf (NinB) of bacteriophage λ with R103E; Mutant derivative in pMALc2; source: E. coli BL21-AI carrying the pMALc2 construct, purified (amylose, heparin-agarose)
stoichiometry N [8]: 2
binding result [2]: binds

B11: MBP-Orf W50A (natural protein, bacteriophage λ)
chain: T3 sequence with A45Q, W50A
notes: Orf (NinB) of bacteriophage λ with W50A; Mutant derivative in pMALc2; source: E. coli BL21-AI carrying the pMALc2 construct, purified (amylose, heparin-agarose)
stoichiometry N [8]: 2
binding result [2]: binds

B12: MBP-Orf K48A (natural protein, bacteriophage λ)
chain: T3 sequence with A45Q, K48A
notes: Orf (NinB) of bacteriophage λ with K48A; Mutant derivative in pMALc2; One paragraph calls residue 48 Arg48, others Lys48; source: E. coli BL21-AI carrying the pMALc2 construct, purified (amylose) as described [13]
stoichiometry N [8]: 2
binding result [2]: binds

B13: MBP-Orf V106E (natural protein, bacteriophage λ)
chain: T3 sequence with A45Q, V106E
notes: Orf (NinB) of bacteriophage λ with V106E; Mutant derivative in pMALc2; Tends to form multimers or aggregates; source: E. coli BL21-AI carrying the pMALc2 construct, purified (amylose, heparin-agarose)
stoichiometry N [8]: 2 and 4
binding result [2]: binds
